Test results taken from the supplement of paper PMC10567573.

B1: KRT13 (parent)
chain: TSSASVTTTSNASGRRTSDVRRP
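Further: lentivirally expressed fusions sorted by FACS into six bins by GFP to DsRed ratio, PSI derived from sequencing read proportions per bin multiplied by bin number.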

Variants of: B1
Experiment: protein stability index of a GFP-peptide fusion (GPS, HEK-293T) (PSI 1-6); higher = more stable
Settings: c terminus: native
With TSSASVTTTSNASVRRTSDVRRP the protein stability index was 2.64.
In the case of TSSASVTTTSNASQRRTSDVRRP, the protein stability index is reported as 2.23.
TSSASVTTTSNASMRRTSDVRRP gave a protein stability index of 3.29.
Work on TSSASVTTTSNASIRRTSDVRRP yielded a protein stability index of 2.46.
For TSSASVTTTSNASPRRTSDVRRP, the protein stability index was 1.88.
With TSSASVTTTSNASRRRTSDVRRP the protein stability index was 2.21.
TSSASVTTTSNASCRRTSDVRRP gave a protein stability index of 1.75.
Work on TSSASVTTTSNASTRRTSDVRRP yielded a protein stability index of 2.3.
TSSASVTTTSNASARRTSDVRRP showed a protein stability index of 3.4.
Work on TSSASVDTTSNASGRRTSDVRRP yielded a protein stability index of 3.4.
Work on TSSASVLTTSNASGRRTSDVRRP yielded a protein stability index of 2.23.
Variant TSSASVMTTSNASGRRTSDVRRP has a protein stability index of 3.08.
Variant TSSASVRTTSNASGRRTSDVRRP has a protein stability index of 2.97.
With TSSASVPTTSNASGRRTSDVRRP the protein stability index was 1.66.
Variant TSSASVNTTSNASGRRTSDVRRP has a protein stability index of 1.45.
Variant TSSASVWTTSNASGRRTSDVRRP has a protein stability index of 3.38.
With TSSASVITTSNASGRRTSDVRRP the protein stability index was 1.93.
For TSSASVFTTSNASGRRTSDVRRP, the protein stability index was 2.24.
In the case of TSSASVQTTSNASGRRTSDVRRP, the protein stability index is reported as 1.3.
In the case of TSSASVKTTSNASGRRTSDVRRP, the protein stability index is reported as 2.19.
In the case of TSSASVYTTSNASGRRTSDVRRP, the protein stability index is reported as 4.47.
For TSSASVHTTSNASGRRTSDVRRP, the protein stability index was 2.54.
With TSSASVGTTSNASGRRTSDVRRP the protein stability index was 1.17.
Variant TSSASVATTSNASGRRTSDVRRP has a protein stability index of 2.46.
In the case of TSSASVTTTSNASGRRTFDVRRP, the protein stability index is reported as 1.56.
With TSSASVTTTSNASGRRTTDVRRP the protein stability index was 2.85.
With TSSASVTTTSNASGRRTPDVRRP the protein stability index was 2.02.
Work on TSSASVTTTSNASGRRTQDVRRP yielded a protein stability index of 2.82.
TSSASVTTTSNASGRRTVDVRRP showed a protein stability index of 3.51.
Work on TSSASVTTTSNASGRRTEDVRRP yielded a protein stability index of 2.45.
TSSASVTTTSNASGRRTKDVRRP showed a protein stability index of 1.3.
In the case of TSSASVTTTSNASGRRTADVRRP, the protein stability index is reported as 4.56.
In the case of TSSASVTTTSNASGRRTMDVRRP, the protein stability index is reported as 1.77.
With TSSASVTTTSNASGRRTLDVRRP the protein stability index was 2.03.
With TSSASVTTTSNASGRRTDDVRRP the protein stability index was 2.19.
Variant TSSASVTTTSNASGRRTGDVRRP has a protein stability index of 1.23.
In the case of TSSASVTTTSNASGRRHSDVRRP, the protein stability index is reported as 2.66.
TSSASVTTTSNASGRRISDVRRP showed a protein stability index of 3.61.
For TSSASVTTTSNASGRRYSDVRRP, the protein stability index was 2.3.
For TSSASVTTTSNASGRRNSDVRRP, the protein stability index was 2.15.
For TSSASVTTTSNASGRRDSDVRRP, the protein stability index was 2.62.
Work on TSSASVTTTSNASGRRSSDVRRP yielded a protein stability index of 2.16.
TSSASVTTTSNASGRRLSDVRRP showed a protein stability index of 1.45.
Work on TSSASVTTTSNASGRRCSDVRRP yielded a protein stability index of 2.94.
Work on TSSASVTTTSNASGRRESDVRRP yielded a protein stability index of 1.63.
Variant TSSASVTTTSNASGRRMSDVRRP has a protein stability index of 2.44.
TSSADVTTTSNASGRRTSDVRRP gave a protein stability index of 2.48.
In the case of TSSAGVTTTSNASGRRTSDVRRP, the protein stability index is reported as 2.79.
Work on TSSAFVTTTSNASGRRTSDVRRP yielded a protein stability index of 3.27.
Work on TSSAEVTTTSNASGRRTSDVRRP yielded a protein stability index of 3.07.
TSSAIVTTTSNASGRRTSDVRRP gave a protein stability index of 2.37.
Variant TSSATVTTTSNASGRRTSDVRRP has a protein stability index of 4.31.
Variant TSSAHVTTTSNASGRRTSDVRRP has a protein stability index of 3.91.
For TSSACVTTTSNASGRRTSDVRRP, the protein stability index was 3.15.
TSSAMVTTTSNASGRRTSDVRRP gave a protein stability index of 1.88.
Work on TSSANVTTTSNASGRRTSDVRRP yielded a protein stability index of 2.44.
With TSSAQVTTTSNASGRRTSDVRRP the protein stability index was 2.59.
TSSAAVTTTSNASGRRTSDVRRP gave a protein stability index of 2.49.
Work on TSSAKVTTTSNASGRRTSDVRRP yielded a protein stability index of 1.9.
In the case of TSSASVTTTSEASGRRTSDVRRP, the protein stability index is reported as 3.41.
For TSSASVTTTSHASGRRTSDVRRP, the protein stability index was 1.8.
TSSASVTTTSFASGRRTSDVRRP showed a protein stability index of 2.92.
In the case of TSSASVTTTSPASGRRTSDVRRP, the protein stability index is reported as 1.12.
TSSASVTTTSTASGRRTSDVRRP showed a protein stability index of 2.74.
With TSSASVTTTSAASGRRTSDVRRP the protein stability index was 3.09.
Work on TSSASVTTTSVASGRRTSDVRRP yielded a protein stability index of 1.98.
For TSSASVTTTSLASGRRTSDVRRP, the protein stability index was 2.98.
Work on TSSASVTTTSGASGRRTSDVRRP yielded a protein stability index of 2.7.
Work on TSSASVTTTSDASGRRTSDVRRP yielded a protein stability index of 1.71.
Variant TSSASVTTTSYASGRRTSDVRRP has a protein stability index of 3.34.
In the case of TSSASVTTTSIASGRRTSDVRRP, the protein stability index is reported as 1.08.
TSSASVTTTSRASGRRTSDVRRP showed a protein stability index of 2.36.
TSSASVTTTSKASGRRTSDVRRP gave a protein stability index of 1.86.
In the case of TSSASVTKTSNASGRRTSDVRRP, the protein stability index is reported as 3.7.
In the case of TSSASVTETSNASGRRTSDVRRP, the protein stability index is reported as 3.31.
TSSASVTFTSNASGRRTSDVRRP gave a protein stability index of 2.35.
Work on TSSASVTNTSNASGRRTSDVRRP yielded a protein stability index of 2.98.
Variant TSSASVTQTSNASGRRTSDVRRP has a protein stability index of 3.25.
Variant TSSASVTATSNASGRRTSDVRRP has a protein stability index of 3.85.
Work on TSSASVTPTSNASGRRTSDVRRP yielded a protein stability index of 1.64.
With TSSASVTGTSNASGRRTSDVRRP the protein stability index was 2.26.
In the case of TSSASVTYTSNASGRRTSDVRRP, the protein stability index is reported as 3.44.
TSSASVTDTSNASGRRTSDVRRP gave a protein stability index of 2.08.
With TSSESVTTTSNASGRRTSDVRRP the protein stability index was 2.39.
Work on TSSWSVTTTSNASGRRTSDVRRP yielded a protein stability index of 2.44.
TSSSSVTTTSNASGRRTSDVRRP gave a protein stability index of 1.03.
Work on TSSQSVTTTSNASGRRTSDVRRP yielded a protein stability index of 2.03.
For TSSPSVTTTSNASGRRTSDVRRP, the protein stability index was 1.7.
TSSKSVTTTSNASGRRTSDVRRP gave a protein stability index of 3.21.
Work on TSSDSVTTTSNASGRRTSDVRRP yielded a protein stability index of 3.4.
In the case of TSSGSVTTTSNASGRRTSDVRRP, the protein stability index is reported as 2.25.
Work on TSSLSVTTTSNASGRRTSDVRRP yielded a protein stability index of 3.6.
TSSHSVTTTSNASGRRTSDVRRP gave a protein stability index of 2.6.
For TSSNSVTTTSNASGRRTSDVRRP, the protein stability index was 2.16.
TSSTSVTTTSNASGRRTSDVRRP showed a protein stability index of 2.02.
In the case of TSSYSVTTTSNASGRRTSDVRRP, the protein stability index is reported as 2.51.
Variant TSSISVTTTSNASGRRTSDVRRP has a protein stability index of 3.97.
